Measured values published in patent US20220412989A1, “COMPOSITIONS AND METHODS FOR DETECTING CELLS UNDERGOING FERROPTOSIS USING AN ANTIBODY” (THE TRUSTEES OF COLUMBIA UNIVERSITY IN THE CITY OF NEW YORK, priority 2020, published 2022).

Key:
mouse TfR1 protein = target: T1, mouse TfR1 protein (Mus musculus, UniProt Q62351); assay: Staining of mouse glioblastoma paraffin-embedded tissue
T1 construct: from tissue; host or cells: murine glioma grown from murine glioma cells injected into c57/B6 mouse brain
T1 sequence (Q62351 whole entry): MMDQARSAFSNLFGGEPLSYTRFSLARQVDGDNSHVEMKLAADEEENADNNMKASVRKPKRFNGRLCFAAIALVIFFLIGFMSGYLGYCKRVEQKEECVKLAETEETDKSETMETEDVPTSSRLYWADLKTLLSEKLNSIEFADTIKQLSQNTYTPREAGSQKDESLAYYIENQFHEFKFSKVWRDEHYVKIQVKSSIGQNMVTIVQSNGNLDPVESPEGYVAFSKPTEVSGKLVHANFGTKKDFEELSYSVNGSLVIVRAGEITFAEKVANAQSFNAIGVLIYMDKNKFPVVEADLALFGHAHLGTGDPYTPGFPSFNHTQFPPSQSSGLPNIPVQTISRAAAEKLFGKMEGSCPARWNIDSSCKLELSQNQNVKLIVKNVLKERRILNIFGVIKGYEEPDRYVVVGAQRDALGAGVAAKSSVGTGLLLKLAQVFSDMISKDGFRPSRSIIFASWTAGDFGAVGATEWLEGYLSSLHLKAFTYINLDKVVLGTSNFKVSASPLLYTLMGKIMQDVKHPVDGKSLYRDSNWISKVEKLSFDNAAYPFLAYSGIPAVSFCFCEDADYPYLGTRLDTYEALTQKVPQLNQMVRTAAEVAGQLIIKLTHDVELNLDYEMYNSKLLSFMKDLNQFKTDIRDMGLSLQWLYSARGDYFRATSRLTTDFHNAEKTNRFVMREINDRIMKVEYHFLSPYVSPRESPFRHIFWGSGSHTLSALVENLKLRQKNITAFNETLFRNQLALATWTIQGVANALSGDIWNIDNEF
Method: All procedures were performed according to the Columbia University Medical Center Institutional Animal Care and Use Committee. Murine glioma cell lines were created from tumor bearing mice. These tumors were generated by injection of a PDGF-IRES-Cre retrovirus into the subcortical white matter of mice with floxed PTEN and/or p53 (Sonabend et al., 2013). After mice reached end stage, the tumors were dissociated and primary cell cultures were created. These cells harbored the specific mutations of the original tumors, and could be re-injected to form gliomas in c57/B6 mice with high fidelity. Briefly, mice between the ages of 6-8 weeks received 50,000 murine glioma cells through stereotactic injection after being anesthetized with a ketamine/xylazine cocktail (87.5 mg/12.5 mg w/w). After cessation of toe-pinch reflex, the scalp was shaved and cleaned with serial use of betadine and 70% ethanol swabs. An incision was made and the skull was exposed. A burr hole was created, 2 mm anterior, 2 mm lateral and 2 mm deep to the right of the bregma. The cells were injected into the subcortical white matter over a period of 3 minutes (0.333 μL/min). Once the injection ceased, the needle was left in place for 1 minute before being slowly withdrawn. After tumor developed, brains were harvested and fixed in 4% paraformaldehyde and embedded in paraffin. 5 micron sections were made for staining.

[1] = system: TfR1 protein in HT-1080 cells; assay: Western blot of TfR1 during ferroptosis; format: cell-based, human; settings: RSL3-induced and IKE-induced ferroptosis
Method: HT-1080 cells were seeded in DMEM (Corning 10-013-CM) and 10% Hi-FBS with 1% penicillin and streptomycin (PS) with 1% MEM Non-Essential Amino Acids Solution (100×) (Thermo Fisher Scientific 11140-076) 16 h prior to use. DMSO or 1 μM of RSL3 was added and incubated for 4 h. Following treatment, the medium was aspirated from each dish and cells were washed twice with PBS. Cells were lysed with 70 μl lysis buffer (RIPA buffer from ThermoFisher, cat. 89900, 1 mM EDTA, 1 mM PMSF, 1× Halt™ protease inhibitor cocktail from ThermoFisher, cat. 78430 and 1× Halt™ phosphatase inhibitor cocktail from ThermoFisher, cat. 78426). Unlysed cells and debris were pelleted for 15 min at 16,000×g at 4° C. Samples were separated using SDS-PAGE and transferred to a polyvinylidene difluoride membrane. Transfer was performed using the iBlot2 system (Invitrogen). […]

B1: 3F3-FMA: murine monoclonal IgG1 raised against ferroptotic membrane fractions; antigen is human transferrin receptor protein 1 (TfR1) (antibody, V domains shown)
VH: EVLLQQSGTELVRPGALVKLSCKASGFNIQDLYIHWVKQRPEQGLEWIGWIDPETDNTIYDPKFQGKASITADTSSNTAYLQLSSLTSEDTAMYYCSTGLLQWYFDVWGAGTAVTVSS
VL: DIVMTQSPSSLAMSIGQKVTMRCKSSQSLLNSYNQKNCLAWYQQKPGQSPKLLLYFVSTRESGVPDRFIGSGSGTDFTLTISSVQAEDLADYFCQQHYSTPLTFGAGTKLELK
Mouse TfR1 protein
  recognition of TfR1 in mouse GBM tumor samples: able to recognize mouse TfR1 protein
[1]
  intensity of the bands in western blotting: increased intensity of the bands
